Experiments:
[1] = test system: S. uberis in mastitic raw cow's milk; assay: Challenge of mastitic raw cow's milk; assay type: cell-based, Streptococcus uberis; conditions: milk of 4 cows, 8 h; 0.5 μM NC5, 50 μg/mL cloxacillin or both
Method: Raw cow's milk from S. uberis infected dairy cows was supplied by the milk control center of Flanders (MCC Vlaanderen). Upon arrival, the milk was serially diluted and plated on BHI agar to determine the bacterial load. Only milk with >10^5 […] CFU/mL S. uberis was included as a selection criterium. If needed, the raw milk was incubated during 8 h at 37° C. to artificially increase the initial bacterial load. […] Upon incubation at 37° C., every 2 h, 20 μL was transferred from each well to 180 μL dPBS, serially diluted and plated on BHI agar. Plates were incubated overnight and CFU/mL were calculated the next day. Undiluted, mastitic milk was always pipetted with ClipTip Pipette Tips (Westburg, The Netherlands) due to high viscosity. Mastitis isolates were confirmed as S. uberis by MALDI-TOF MS biotyping.

[2] = test system: S. uberis-infected murine mammary glands; assay: Mouse model of S. uberis mastitis: Ly6G immunohistochemistry (neutrophil influx); assay type: in vivo; conditions: 30 μg cloxacillin stand-alone
Excerpt: (§1) All experimental procedures on mice were executed at the Faculty of Veterinary Medicine of Ghent University (Merelbeke, Belgium). Breeding pairs of female and male CD-1 mice (Envigo, The Netherlands) were allowed to mate during two weeks, after which the dams gave birth approximately seven days later. Twelve days postpartum, the lactating dams were intraductally inoculated with a blunted 32 gauge pediatric needle in the fourth inguinal mammary gland pair after properly disinfecting the teat. These intraductal inoculations were always performed under general gas anesthesia, using a mixture of medical oxygen and isoflurane at 2.5-3.0% for induction and 1.5-2.0% for maintenance. The long-acting analgesic buprenorphine was administered at 10 μg/kg intraperitoneally for post-surgical pain relief. An inoculum dose of approximately […] colony forming units (CFU) of a clinical bovine mastitis S. uberis isolate in 100 μl dPBS was intraductally inoculated at 1 h post-weaning and mice were grouped ad random at 12 h post-infection (p.i.) and placed under gas anesthesia a second time to administer intramammary treatment. […] The treated mice were sedated 16 h p.i. (i.e., 4 h post-treatment). The therapeutics were diluted in dPBS to their desired concentration, mixed by pipetting and kept on melting ice until they were administered intraductally within 1 h after preparation. […]

[3] = test system: S. uberis-infected murine mammary glands; assay: Mouse model of S. uberis mastitis: bacterial load and clinical symptoms; assay type: in vivo; conditions: 30 μg cloxacillin stand-alone
Excerpt: as §1

[4] = test system: S. uberis-infected murine mammary glands; assay: Mouse model of S. uberis mastitis: inflammatory protein profiling in mammary gland lysates; assay type: in vivo; conditions: 30 μg cloxacillin stand-alone
Excerpt: All experimental procedures on mice were executed at the Faculty of Veterinary Medicine of Ghent University (Merelbeke, Belgium). Breeding pairs of female and male CD-1 mice (Envigo, The Netherlands) were allowed to mate during two weeks, after which the dams gave birth approximately seven days later. Twelve days postpartum, the lactating dams were intraductally inoculated with a blunted 32 gauge pediatric needle in the fourth inguinal mammary gland pair after properly disinfecting the teat. These intraductal inoculations were always performed under general gas anesthesia, using a mixture of medical oxygen and isoflurane at 2.5-3.0% for induction and 1.5-2.0% for maintenance. The long-acting analgesic buprenorphine was administered at 10 μg/kg intraperitoneally for post-surgical pain relief. An inoculum dose of approximately […] colony forming units (CFU) of a clinical bovine mastitis S. uberis isolate in 100 μl dPBS was intraductally inoculated at 1 h post-weaning and mice were grouped ad random at 12 h post-infection (p.i.) and placed under gas anesthesia a second time to administer intramammary treatment. […] The treated mice were sedated 16 h p.i. (i.e., 4 h post-treatment). The therapeutics were diluted in dPBS to their desired concentration, mixed by pipetting and kept on melting ice until they were administered intraductally within 1 h after preparation. Inoculum preparation was done by growing S. uberis to stationary phase in brain heart infusion (BHI), after which cells were washed with dPBS and diluted in dPBS to the desired concentration based on OD600 measurements.
The host response to the experimental mammary gland infection and subsequent therapy was investigated by determining the levels of inflammatory cytokines and chemokines in mammary gland lysates, obtained by mixing the homogenates with 300 μL caspase lysis buffer (CLB) containing protease inhibitors, and subsequent centrifugation (12,000 g; 4° C.; 20 min). Protein concentration of these lysates was determined using the Bradford protein assay. Standardization of the mammary gland lysates was done by dilution in CLB to assure equal protein concentrations. Levels of the selected inflammatory mediators TNF-α, MCP-1, M-& G-CSF as well as IL-1α, -1β, -6, & -8, were determined on mammary gland lysates using a ProcartaPlex Immunoassay. Quantification of CHI3L1 and LCN2 was performed by ELISA.

[5] = test system: S. aureus; assay: TRA and TKA against S. aureus mastitis isolates; assay type: cell-based, Staphylococcus aureus; conditions: S. aureus (sub)clinical isolates
Method: Concerning the time killing assay, an overnight bacterial culture was diluted 1:10 for S. uberis, S. agalactiae-& dysgalactiae or 1:100 for S. aureus in PBS or UHT-pasteurized whole cow's milk. A volume of 10 μL thereof was combined with an equal amount of chimeric endolysin in PBS (or only PBS as negative control) in triplicate and incubated in a covered 96-well microtiter plate at 37° C. for 2 h. The dose was low (i.e. 0.25 μM), but this was chosen to differentiate between less and better performing variants, consequently allowing a ranking. Finally, these fractions were serially diluted 1:10 in PBS. 5 μL of each fraction was spotted on TSA or BHI-agar and incubated overnight at 37° C. The following day, colony forming units (CFU) were counted and converted to CFU/mL to calculate logarithmic reductions in comparison with the negative control. The relative scores were calculated by dividing the observed logarithmic reduction for each endolysin by the maximal reduction observed for that specific condition and strain. Next, this value was divided by the number of conditions and strains tested (i.e., 8=4 bacterial strains×2 conditions (PBS/UHT-milk)). […] Next, the OD600 was measured using a Tecan infinite 200 PRO plate reader (Tecan, Switzerland) every 15 seconds at 37° C., shaking the 96-well plate between each measurement. […]

[6] = test system: stationary phase S. uberis; assay: Turbidity reduction assay (TRA), S. uberis; assay type: cell-based, Streptococcus uberis; conditions: 0.3 μM
Method: (§2) Concerning the time killing assay, an overnight bacterial culture was diluted 1:10 for S. uberis, S. agalactiae-& dysgalactiae or 1:100 for S. aureus in PBS or UHT-pasteurized whole cow's milk. A volume of 10 μL thereof was combined with an equal amount of chimeric endolysin in PBS (or only PBS as negative control) in triplicate and incubated in a covered 96-well microtiter plate at 37° C. for 2 h. The dose was low (i.e. 0.25 μM), but this was chosen to differentiate between less and better performing variants, consequently allowing a ranking. Finally, these fractions were serially diluted 1:10 in PBS. 5 μL of each fraction was spotted on TSA or BHI-agar and incubated overnight at 37° C. The following day, colony forming units (CFU) were counted and converted to CFU/mL to calculate logarithmic reductions in comparison with the negative control. The relative scores were calculated by dividing the observed logarithmic reduction for each endolysin by the maximal reduction observed for that specific condition and strain. Next, this value was divided by the number of conditions and strains tested (i.e., 8=4 bacterial strains×2 conditions (PBS/UHT-milk)). As such, the best performing candidate in each individual assay received a score of 0.125 (=(1/1)/8). […] Turbidity reduction assays were performed by combining 100 μL of overnight grown bacterial cells with an equal volume of purified enzyme at the desired concentration. Bacterial cells were washed with PBS and resuspended in a 1:1 ratio with enzyme to an OD600 of approximately 1.0. Next, the OD600 was measured using a Tecan infinite 200 PRO plate reader (Tecan, Switzerland) every 15 seconds at 37° C., shaking the 96-well plate between each measurement.
(§3) Time killing and turbidity reduction assays were performed as previously described in 1.3.1.

[7] = test system: S. uberis, S. aureus, S. agalactiae and S. dysgalactiae; assay: 2 h time killing assay in PBS and UHT-milk, relative in vitro scoring; assay type: cell-based; conditions: 0.25 μM
Method: as §2, with “The dose was low (i.e. 0.25 μM), but this was chosen to differentiate between less and better performing variants, consequently allowing a ranking.” left out
Stationary phase S. uberis 0140J or S. aureus N305 and one randomly chosen clinical isolate of S. uberis, S. aureus, S. agalactiae and S. dysgalactiae were challenged with a final concentration of 0.25 μM endolysin in a 2 h time killing assay (TKA) in both phosphate buffered saline (PBS) and ultra-high temperature pasteurized whole cow's milk (UHT-milk).

[8] = test system: stationary phase S. uberis; assay: Time killing assay (TKA), S. uberis; assay type: cell-based, Streptococcus uberis; conditions: 0.3 μM; for ΔLog10 (CFU/mL): 1 h
Method: as §2, with “A volume of 10 μL thereof was combined with an equal amount of chimeric endolysin in PBS (or only PBS as negative control) in triplicate and incubated in a covered 96-well microtiter plate at 37° C. for 2 h. The dose was low (i.e. 0.25 μM), but this was chosen to differentiate between less and better performing variants, consequently allowing a ranking.” left out
as §3
Time killing assays were performed as previously described in 1.3.1.

[9] = Clinical S. uberis 1 (Unknown ST and GCC)
[10] = Clinical S. uberis 2 (Unknown ST, GCC 5)
[11] = Clinical S. uberis 3 (Unknown ST, GCC 5)
[12] = Clinical S. uberis 4 (ST 815, GCC 143)
[13] = Clinical S. uberis 5 (ST 944, GCC 5)
[14] = Subclinical S. uberis 1 (ST 808, GCC 143)
[15] = Subclinical S. uberis 2 (Unknown ST and GCC)
[16] = Subclinical S. uberis 3 (Unknown ST, GCC 5)
[17] = Subclinical S. uberis 4 (Unknown ST and GCC)

Cc1onc(-c2ccccc2Cl)c1C(=O)N[C@@H]1C(=O)N2[C@@H]1SC(C)(C)[C@@H]2C(=O)O [cloxacillin]
log10 reduction of S. uberis versus PBS control [1]: significant (p<0.05) reductions in all 4 mastitic milk samples at 8 h | reduced neutrophil influx (Ly6G-positive staining) versus placebo [2]: 1.8 fold | decrease in CFU numbers versus placebo [3]: 630 fold | decrease of bacterial load versus placebo ([3]; intramammary, 4 h post-treatment, all mice): 55 fold | CHI3L1 reduction versus placebo [4]: 1.4 fold | IL-1α decrease versus placebo [4]: 1.2 fold | IL-1β decrease versus placebo [4]: 1.3 fold | IL-6 decrease versus placebo [4]: 2.0 fold | LCN2 reduction versus placebo [4]: 1.2 fold | MCP-1 reduction versus placebo [4]: 1.5 fold | MIP-2 decrease versus placebo [4]: 1.6 fold | TNF-α decrease versus placebo [4]: 1.4 fold

B1: NC2: chimeric endolysin SEQ ID NO: 14; CPP + PlySs2 CHAP + PlySs2 SH3_5 + PlySs9 amidase_3 (protein)
chain: MRRRRRRRRGATTVNEALNNVRAQVGSGVSVGNGECYALASWYERMISPDATVGLGAGVGWVSGAIGDTISAKNIGSSYNWQANGWTVSTSGPFKAGQIVTLGATPGNPYGHVVIVEAVDGDRLTILEQNYGGKRYPVRNYYSAASYRQQVVHYITPPGTVAQSAPNLAGAGSRSYRETGTMTVTVDALNVRRAPNTSGEIVAVYKRGESFDYDTVIIDVNGYVWVSYIGGSGKRNYVATGATKDGKRFGNAWGTFKGSGKHLVICGHGQGRTGYDPGAVNAKLGITEAGKVRELSKLMSKYSGQQIDFITEQNVYDYRSITSIGKGYDSITELHFNAFNGSAKGTEVLIQSSLEADKEDMAILSLLSRYFQNRGIKKVDWLYNANQAASRGYTYRLVEIAFIDNEQDMAIFENKKEDIAKGLVSAITGVEVKTIVPSPPSSTVGSSGTPSKSIYLVGDSLRVLPHATHYQTGQKIANWVKGRTYKILQVKNVHQSNSKRAYLLDGIKSWVLEQDVEGTTKGHSKYHHHHHH
enzymatic (ΔOD600) and killing (Δ log10) activity, NC2 pairwise versus NC5 [5]: significantly (p<0.001) improved enzymatic (i.e., ΔOD600) and killing (i.e., Δ log10) activity | lysis speed (ΔOD600/min)/μM [6, 9]: 0.03 (ΔOD600/min)/μM | ΔOD600 ([6]; Clinical S. uberis 1 (Unknown ST and GCC), 1 h): 0.32 | lysis speed (ΔOD600/min)/μM [6, 10]: 0.08 (ΔOD600/min)/μM | ΔOD600 ([6]; Clinical S. uberis 2 (Unknown ST, GCC 5), 1 h): 0.54 | lysis speed (ΔOD600/min)/μM [6, 11]: 0.22 (ΔOD600/min)/μM | ΔOD600 ([6]; Clinical S. uberis 3 (Unknown ST, GCC 5), 1 h): 0.72 | lysis speed (ΔOD600/min)/μM [6, 12]: 0.04 (ΔOD600/min)/μM | ΔOD600 ([6]; Clinical S. uberis 4 (ST 815, GCC 143), 1 h): 0.30 | lysis speed (ΔOD600/min)/μM [6, 13]: 0.12 (ΔOD600/min)/μM | ΔOD600 ([6]; Clinical S. uberis 5 (ST 944, GCC 5), 1 h): 0.63 | ΔOD600 ([6]; S. uberis 0140J): 0.53±0.01 | lysis speed (ΔOD600/min)/μM [6, 14]: 0.18 (ΔOD600/min)/μM | ΔOD600 ([6]; Subclinical S. uberis 1 (ST 808, GCC 143), 1 h): 0.65 | lysis speed (ΔOD600/min)/μM [6, 15]: 0.06 (ΔOD600/min)/μM | ΔOD600 ([6]; Subclinical S. uberis 2 (Unknown ST and GCC), 1 h): 0.59 | lysis speed (ΔOD600/min)/μM [6, 16]: 0.18 (ΔOD600/min)/μM | ΔOD600 ([6]; Subclinical S. uberis 3 (Unknown ST, GCC 5), 1 h): 0.67 | lysis speed (ΔOD600/min)/μM [6, 17]: 0.15 (ΔOD600/min)/μM | ΔOD600 ([6]; Subclinical S. uberis 4 (Unknown ST and GCC), 1 h): 0.66 | ranking by cumulative relative in vitro score [7]: overall best performing candidates | ΔLog10 (CFU/mL) [8, 9]: 0.00 Log10 (CFU/mL) | ΔLog10 (CFU/mL) [8, 10]: 4.16 Log10 (CFU/mL) | ΔLog10 (CFU/mL) [8, 11]: 1.66 Log10 (CFU/mL) | ΔLog10 (CFU/mL) [8, 12]: 0.01 Log10 (CFU/mL) | ΔLog10 (CFU/mL) [8, 13]: 0.86 Log10 (CFU/mL) | Δ log10 ([8]; S. uberis 0140J): 0.90±0.03 log10 | ΔLog10 (CFU/mL) [8, 14]: 2.84 Log10 (CFU/mL) | ΔLog10 (CFU/mL) [8, 15]: 1.02 Log10 (CFU/mL) | ΔLog10 (CFU/mL) [8, 16]: 1.31 Log10 (CFU/mL) | ΔLog10 (CFU/mL) [8, 17]: 2.84 Log10 (CFU/mL)
